# Experimental data reported in paper PMC4022735, “Structural and Biochemical Characterization Reveals LysGH15 as an Unprecedented “EF-Hand-Like” Calcium-Binding Phage Lysin” (PLoS Pathogens, 2014).
# T1: LysGH15 SH3b domain (residues 368–495) (staphylococcal phage GH15, 15N (and/or 13C) labelled for NMR; N-terminal SNA tag remnant omitted (PDB 2MK5 entity residues 4-131 = 368-495))
# T1 chain: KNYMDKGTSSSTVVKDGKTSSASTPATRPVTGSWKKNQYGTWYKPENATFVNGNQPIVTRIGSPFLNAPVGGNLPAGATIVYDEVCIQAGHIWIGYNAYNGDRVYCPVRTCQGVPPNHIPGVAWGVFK
# Target: T1, LysGH15 SH3b domain (residues 368–495)
# Assay: NMR titration; 1H-15N HSQC spectra of 15N-labelled SH3b on addition of the peptide (100 mM stock in the buffer of the SH3b sample); 298 K; KD from a fit of the chemical shift perturbations; fast exchange
# Details: both partners purified
binder,measurement,value
"AGGGGG (synthetic peptide used as previously reported for the SH3b domain of ALE-1; Not a stretch of a named natural protein; also called the peptide; source: synthetic peptide (Sangon Biotech (Shanghai) Co., Ltd.)) [peptide “AGGGGG”]",Kd,~3000 µM
